From patent publication US20140274782A1, “AFFINITY REAGENTS AND METHODS FOR DETECTION, PURIFICATION, AND PROTEOMIC ANALYSIS OF METHYLATED PROTEINS” (The Board of Trustees of the Leland Stanford Junior …, priority 2013, published 2014)
Values joined by “and” are separate entries in the source; they are usually repeats but may differ in a detail not shown here. Equal values may be shown once.

Assays:
3×MBT domain of L3MBTL1 = assay: Triple SILAC pull-down, 3xMBT/3xMBTD355N ratio (cytoplasmic, nuclear and chromatin fractions of 293T cells); type: binding, human; conditions: for 3xMBT/D355N UNC Heavy: experiment with UNC0638 in heavy SILAC media; for 3xMBT/D355N UNC Light: experiment with UNC0638 in light SILAC media;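 on all read-outs here: proteins quantified with MaxQuant, requiring at least two unique peptides and quantification in both label directions, normalized to the mean of proteins from a digested loading control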
G9a and GLP = biological target: T1, G9a and GLP (Homo sapiens, UniProt Q96KQ7+Q9H9B1); assay: Triple SILAC pull-down after UNC0638 treatment of 293T cells, DMSO/UNC0638 ratio of protein captured by 3×MBT; type: cell-based; conditions: for Relative to UNC0638 UNC Heavy: UNC0638 in heavy SILAC media; for Relative to UNC0638 UNC Light: UNC0638 in light SILAC media; for Relative to UNC0638 Average: average of UNC Light and UNC Heavy experiments;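 on all read-outs here: mass spectrometry (Q-Exactive) SILAC quantitation, DMSO/UNC0638 ratio computed after subtracting 3×MBTD355N mutant pull-down background, only proteins with at least twofold 3×MBT over mutant signal considered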
T1 construct: endogenous in cells; host or cells: HEK 293T
T1 sequence (Q96KQ7 2-1210 limits assumed): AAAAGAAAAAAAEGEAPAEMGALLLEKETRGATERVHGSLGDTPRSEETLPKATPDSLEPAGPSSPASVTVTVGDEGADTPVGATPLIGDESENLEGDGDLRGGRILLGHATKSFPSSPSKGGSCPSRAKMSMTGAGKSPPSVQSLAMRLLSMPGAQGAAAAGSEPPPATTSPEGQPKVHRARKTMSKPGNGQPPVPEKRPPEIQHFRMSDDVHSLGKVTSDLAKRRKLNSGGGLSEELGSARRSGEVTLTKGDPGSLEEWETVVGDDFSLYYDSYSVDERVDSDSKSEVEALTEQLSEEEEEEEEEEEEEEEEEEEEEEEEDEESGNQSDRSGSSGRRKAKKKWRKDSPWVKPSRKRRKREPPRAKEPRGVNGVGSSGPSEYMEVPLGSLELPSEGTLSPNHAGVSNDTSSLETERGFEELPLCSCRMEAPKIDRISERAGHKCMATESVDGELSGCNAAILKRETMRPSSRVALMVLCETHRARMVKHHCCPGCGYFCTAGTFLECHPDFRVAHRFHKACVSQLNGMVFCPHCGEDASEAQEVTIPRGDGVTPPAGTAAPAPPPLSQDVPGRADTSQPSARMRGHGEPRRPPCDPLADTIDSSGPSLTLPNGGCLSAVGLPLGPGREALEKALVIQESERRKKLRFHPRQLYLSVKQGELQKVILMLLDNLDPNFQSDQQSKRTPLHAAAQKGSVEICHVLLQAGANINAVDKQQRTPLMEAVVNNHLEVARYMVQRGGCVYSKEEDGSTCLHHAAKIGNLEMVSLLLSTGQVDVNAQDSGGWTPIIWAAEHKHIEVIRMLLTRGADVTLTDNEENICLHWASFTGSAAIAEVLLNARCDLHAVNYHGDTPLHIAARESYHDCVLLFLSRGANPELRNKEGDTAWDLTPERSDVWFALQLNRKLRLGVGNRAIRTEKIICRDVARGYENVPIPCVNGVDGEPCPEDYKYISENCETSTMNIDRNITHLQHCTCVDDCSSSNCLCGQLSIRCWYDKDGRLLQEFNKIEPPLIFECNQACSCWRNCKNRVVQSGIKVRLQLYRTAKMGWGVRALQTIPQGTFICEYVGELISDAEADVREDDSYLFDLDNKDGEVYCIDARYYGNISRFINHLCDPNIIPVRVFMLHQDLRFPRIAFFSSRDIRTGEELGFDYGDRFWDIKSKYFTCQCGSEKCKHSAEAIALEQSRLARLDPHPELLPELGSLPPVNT
T1 sequence (Q9H9B1 2-1298 limits assumed): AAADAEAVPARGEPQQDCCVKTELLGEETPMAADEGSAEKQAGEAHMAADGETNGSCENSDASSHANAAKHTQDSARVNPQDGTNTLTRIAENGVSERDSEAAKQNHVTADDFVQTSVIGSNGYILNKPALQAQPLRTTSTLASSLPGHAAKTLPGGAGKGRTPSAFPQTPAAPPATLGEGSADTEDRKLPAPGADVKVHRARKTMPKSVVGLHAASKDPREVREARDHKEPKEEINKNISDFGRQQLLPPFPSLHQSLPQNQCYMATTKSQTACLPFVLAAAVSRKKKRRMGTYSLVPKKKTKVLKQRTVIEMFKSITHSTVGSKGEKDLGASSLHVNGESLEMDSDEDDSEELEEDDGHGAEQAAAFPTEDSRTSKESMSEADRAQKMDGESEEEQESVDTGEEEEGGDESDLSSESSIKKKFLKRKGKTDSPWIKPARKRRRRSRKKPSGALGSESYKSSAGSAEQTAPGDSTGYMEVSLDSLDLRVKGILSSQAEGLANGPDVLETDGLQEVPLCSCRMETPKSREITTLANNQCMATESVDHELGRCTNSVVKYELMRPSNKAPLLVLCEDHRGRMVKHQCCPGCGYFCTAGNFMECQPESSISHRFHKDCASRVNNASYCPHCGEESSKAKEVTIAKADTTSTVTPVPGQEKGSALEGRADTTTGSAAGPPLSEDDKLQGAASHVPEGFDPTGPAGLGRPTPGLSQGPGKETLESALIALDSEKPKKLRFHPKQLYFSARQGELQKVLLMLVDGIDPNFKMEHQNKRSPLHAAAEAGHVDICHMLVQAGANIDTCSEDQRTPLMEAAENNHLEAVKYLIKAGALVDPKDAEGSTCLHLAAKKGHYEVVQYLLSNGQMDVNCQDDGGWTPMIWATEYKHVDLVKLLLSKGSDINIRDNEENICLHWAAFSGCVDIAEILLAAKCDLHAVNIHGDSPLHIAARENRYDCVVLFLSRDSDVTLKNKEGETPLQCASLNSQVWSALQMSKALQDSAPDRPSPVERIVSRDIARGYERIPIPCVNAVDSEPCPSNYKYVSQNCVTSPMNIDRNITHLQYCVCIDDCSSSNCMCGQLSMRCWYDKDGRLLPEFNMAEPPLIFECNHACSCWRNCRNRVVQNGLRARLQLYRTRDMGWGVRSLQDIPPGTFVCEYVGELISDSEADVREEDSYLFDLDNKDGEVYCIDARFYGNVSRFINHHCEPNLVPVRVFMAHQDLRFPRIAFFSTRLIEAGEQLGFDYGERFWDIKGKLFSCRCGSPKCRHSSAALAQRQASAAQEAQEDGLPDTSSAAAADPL

[1] = SILAC ratio, pull-down 3xMBT vs 3xMBTD355N
[2] = SILAC ratio DMSO/UNC0638 of protein pulled down with 3xMBT
[3] = SILAC ratio 3xMBT vs 3xMBTD355N pull-down, 293T cells, all values in log base 2
[4] = SILAC ratio DMSO relative to UNC0638, pull-down with 3xMBT, all values in log base 2

Row | Substance | Relative to UNC0638 UNC Heavy (G9a and GLP; [2]) | Relative to UNC0638 UNC Light (G9a and GLP; [2]) | Relative to UNC0638 Average (G9a and GLP) | Relative to UNC0638 UNC Heavy (G9a and GLP; [4]) | Relative to UNC0638 UNC Light (G9a and GLP; [4]) | Relative to UNC0638 Average (G9a and GLP; all values in log base 2) | 3xMBT/D355N UNC Heavy (3×MBT domain of L3MBTL1; [1]) | 3xMBT/D355N UNC Light (3×MBT domain of L3MBTL1; [1]) | 3xMBT/D355N UNC Heavy (3×MBT domain of L3MBTL1; [3]) | 3xMBT/D355N UNC Light (3×MBT domain of L3MBTL1; [3])
1 | FXR1 | 1.23 log base 2 | −1.01 log base 2 | 0.11 log base 2 | – | – | – | 1.60 log base 2 | 1.73 log base 2 | – | –
2 | G3BP1 [Hit G3BP1] | 0.23 log base 2 | 0.15 log base 2 | 0.19 log base 2 | – | – | – | 2.02 log base 2 | 2.72 log base 2 | – | –
3 | GRB2 | – | – | – | 0.36 log base 2 | −0.45 log base 2 | −0.05 log base 2 | – | – | 3.13 log base 2 | 1.36 log base 2
4 | GSK3B | 0.41 log base 2 | 0.03 log base 2 | 0.22 log base 2 | – | – | – | 1.95 log base 2 | 2.25 log base 2 | – | –
5 | GTF3C1 | 1.93 log base 2 | −0.06 log base 2 | 0.93 log base 2 | – | – | – | 0.63 log base 2 | 2.08 log base 2 | – | –
6 | HDGF | 0.23 log base 2 | 0.22 log base 2 | 0.23 log base 2 | – | – | – | 1.65 log base 2 | 2.78 log base 2 | – | –
7 | HIST1H1C | 0.18 log base 2 | 0.15 log base 2 | 0.17 log base 2 | – | – | – | 5.16 log base 2 | 4.61 log base 2 | – | –
8 | HNRNPAB | 0.09 log base 2 | 0.32 log base 2 | 0.20 log base 2 | – | – | – | 4.00 log base 2 | 4.21 log base 2 | – | –
9 | HNRNPU | 0.22 log base 2 | 0.28 log base 2 | 0.25 log base 2 | – | – | – | 2.16 log base 2 | 2.39 log base 2 | – | –
10 | HSPA5 | 0.35 log base 2 | 0.05 log base 2 | 0.20 log base 2 | – | – | – | 0.70 log base 2 | 2.32 log base 2 | – | –
11 | ILF2 | 0.15 log base 2 | 0.22 log base 2 | 0.18 log base 2 | – | – | – | 3.72 log base 2 | 3.45 log base 2 | – | –
12 | KHDRBS1 | 0.54 log base 2 | 0.19 log base 2 | 0.37 log base 2 | – | – | – | 2.03 log base 2 | 2.82 log base 2 | – | –

Now from value to substance, other results behind:

Row | Relative to UNC0638 UNC Heavy (G9a and GLP; [2]) | Relative to UNC0638 UNC Light (G9a and GLP; [2]) | Relative to UNC0638 Average (G9a and GLP) | Relative to UNC0638 UNC Heavy (G9a and GLP; [4]) | Relative to UNC0638 UNC Light (G9a and GLP; [4]) | Relative to UNC0638 Average (G9a and GLP; all values in log base 2) | Substance | 3xMBT/D355N UNC Heavy (3×MBT domain of L3MBTL1; [1]) | 3xMBT/D355N UNC Light (3×MBT domain of L3MBTL1; [1]) | 3xMBT/D355N UNC Heavy (3×MBT domain of L3MBTL1; [3]) | 3xMBT/D355N UNC Light (3×MBT domain of L3MBTL1; [3])
13 | – | – | – | −0.20 log base 2 | −0.01 log base 2 | −0.10 log base 2 | G6PD [Hit G6PD] | – | – | 0.75 log base 2 | 1.96 log base 2
14 | – | – | – | 0.14 log base 2 | −0.24 log base 2 | −0.05 log base 2 | GAPDH | – | – | 1.86 log base 2 | 1.59 log base 2
15 | 0.24 log base 2 | 0.09 log base 2 | 0.17 log base 2 | – | – | – | GRWD1 | 2.87 log base 2 | 2.55 log base 2 | – | –
16 | 0.17 log base 2 and 0.13 log base 2 | 0.10 log base 2 | 0.13 log base 2 and 0.11 log base 2 | – | – | – | HNRNPK | 3.13 log base 2 and 2.55 log base 2 | 3.64 log base 2 and 3.36 log base 2 | – | –
17 | 0.28 log base 2 | 0.06 log base 2 | 0.17 log base 2 | – | – | – | HSPA8 | 2.05 log base 2 | 1.48 log base 2 | – | –
